Data set [1] concerns the target GUS alone (beta-glucuronidase) (UniProt P05804).
Data set [2] concerns the target GUS-YVAA-HBD fusion protein (beta-glucuronidase, Tyr-Val-Ala-Ala-Gly linker, hormone binding domain of rat glucocorticoid receptor) (UniProt P05804).

Chain of GUS-YVAA-HBD fusion protein (beta-glucuronidase, Tyr-Val-Ala-Ala-Gly linker, hormone binding domain of rat glucocorticoid receptor) (P05804 other isoform, or with tags, fused parts or gaps): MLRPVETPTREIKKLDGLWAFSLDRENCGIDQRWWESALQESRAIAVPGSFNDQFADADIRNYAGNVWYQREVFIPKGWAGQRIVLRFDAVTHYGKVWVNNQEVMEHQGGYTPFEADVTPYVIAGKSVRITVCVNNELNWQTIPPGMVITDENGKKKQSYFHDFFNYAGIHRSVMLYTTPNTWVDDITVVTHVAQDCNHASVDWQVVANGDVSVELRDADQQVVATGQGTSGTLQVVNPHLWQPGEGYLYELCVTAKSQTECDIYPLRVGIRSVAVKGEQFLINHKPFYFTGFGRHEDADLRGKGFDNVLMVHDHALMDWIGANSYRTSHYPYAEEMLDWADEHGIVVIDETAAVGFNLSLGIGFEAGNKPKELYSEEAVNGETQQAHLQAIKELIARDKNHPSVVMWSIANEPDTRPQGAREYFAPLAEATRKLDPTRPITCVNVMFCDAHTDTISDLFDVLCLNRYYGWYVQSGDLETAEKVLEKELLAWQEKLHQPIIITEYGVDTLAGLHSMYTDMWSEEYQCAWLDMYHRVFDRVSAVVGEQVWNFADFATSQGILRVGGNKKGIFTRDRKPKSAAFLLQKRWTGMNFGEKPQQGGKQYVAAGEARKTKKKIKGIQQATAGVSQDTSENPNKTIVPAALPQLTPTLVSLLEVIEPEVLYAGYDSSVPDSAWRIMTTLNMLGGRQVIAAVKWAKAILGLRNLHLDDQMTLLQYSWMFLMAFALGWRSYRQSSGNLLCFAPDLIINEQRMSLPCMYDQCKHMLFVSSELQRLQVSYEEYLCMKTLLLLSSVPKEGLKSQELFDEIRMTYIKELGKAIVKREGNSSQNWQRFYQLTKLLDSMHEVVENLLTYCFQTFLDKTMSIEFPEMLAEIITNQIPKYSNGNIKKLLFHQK
Chain of GUS alone (beta-glucuronidase) (P05804 whole entry, looked up, the tested form may be a part): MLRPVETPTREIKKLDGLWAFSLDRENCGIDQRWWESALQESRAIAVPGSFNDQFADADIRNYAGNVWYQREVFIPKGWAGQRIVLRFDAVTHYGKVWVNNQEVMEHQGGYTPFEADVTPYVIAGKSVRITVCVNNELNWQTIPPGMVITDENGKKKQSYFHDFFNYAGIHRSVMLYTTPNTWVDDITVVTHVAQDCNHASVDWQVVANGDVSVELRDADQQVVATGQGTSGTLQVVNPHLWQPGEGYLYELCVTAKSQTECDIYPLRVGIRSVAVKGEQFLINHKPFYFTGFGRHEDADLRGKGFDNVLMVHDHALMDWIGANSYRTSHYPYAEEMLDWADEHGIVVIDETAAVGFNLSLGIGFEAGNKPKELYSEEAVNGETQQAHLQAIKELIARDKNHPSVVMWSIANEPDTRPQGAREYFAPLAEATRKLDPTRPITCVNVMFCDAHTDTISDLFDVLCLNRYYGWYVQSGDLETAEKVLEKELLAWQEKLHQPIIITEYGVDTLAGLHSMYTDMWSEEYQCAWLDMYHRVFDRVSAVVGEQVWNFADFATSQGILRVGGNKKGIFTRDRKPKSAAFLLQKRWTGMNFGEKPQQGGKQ

With purified caspase-1, the “proteolytic cleavage, SDS-PAGE autoradiogram of 35S-labelled protein” value in data set [1] and in data set [2] was “no obvious proteolysis was detected by caspase-1 was observed with either the P1 linker mutant fusion or the GUS alone control” throughout. For the same substance, in data set [2], the “GUS activity of in vitro translated fusion after addition of caspase-1” value is reported as “no detectable increase in GUS activity is observed”.

For the origin of these results see patent US7015023.
